Experimental data as given in publication PMC2929534 (Biochemistry, 2010).
Positions count from the first letter of the chain named. In names and notes the source's numbering stands. Like-named read-outs stand apart in the source and are kept apart here.

B1: AsiA protein (wild type) (natural protein, bacteriophage T4, UniProt P32267 1-90, looked up)
chain: MNKNIDTVREIITVASILIKFSREDIVENRANFIAFLNEIGVTHEGRKLNQNSFRKIVSELTQEDKKTLIDEFNEGFEGVYRYLEMYTNK
B2: AsiA V14A mutant (natural protein, bacteriophage T4, UniProt P32267 1-90, looked up)
chain: B1 chain with V14A
B3: AsiA I40A mutant (natural protein, bacteriophage T4, UniProt P32267 1-90, looked up)
chain: B1 chain with I40A
B4: AsiA E39A mutant (natural protein, bacteriophage T4, UniProt P32267 1-90, looked up)
chain: B1 chain with E39A
B5: AsiA K20A mutant (natural protein, bacteriophage T4, UniProt P32267 1-90, looked up)
chain: B1 chain with K20A
B6: AsiA F21A mutant (natural protein, bacteriophage T4, UniProt P32267 1-90, looked up)
chain: B1 chain with F21A
B7: AsiA I17A/I40A double mutant (natural protein, bacteriophage T4, UniProt P32267 1-90, looked up)
chain: B1 chain with I17A, I40A
B8: AsiA I17A mutant (natural protein, bacteriophage T4, UniProt P32267 1-90, looked up)
chain: B1 chain with I17A
B9: AsiA L18A mutant (natural protein, bacteriophage T4, UniProt P32267 1-90, looked up)
chain: B1 chain with L18A

Experiments:
[1] = target: AsiA M1A mutant (bacteriophage T4) (UniProt P32267); assay: AUC
[2] = target: AsiA M1A mutant (bacteriophage T4) (UniProt P32267); assay: dynamic light scattering
AUC [3] = target: the molecule itself; assay: AUC
dynamic light scattering = target: the molecule itself; assay: dynamic light scattering
AUC [4] = target: the molecule itself; assay: AUC; remark: listed apart in the source
[5] = target: σ^70 subunit of Escherichia coli RNA polymerase (E. coli, UniProt P00579 1-613); assay: native gel or EMSA

Row | Molecule | Ka (AUC [3]) [M⁻¹] | Kd (AUC [3]) [nM] | stoichiometry N (dynamic light scattering) | further results
1 | AsiA M1A mutant (from UniProt P32267 1-90) (natural protein) |  |  |  | Ka [1]: 3.8e+06 M⁻¹; Kd [1]: 260 nM; stoichiometry N [1]: 2; stoichiometry N [2]: 2
2 | B1 | 2.8e+06 | 350 | 2 | 
3 | B2 | 820000 | 1200 | 2 | 
4 | B3 | 360000 | 2700 | 2 | 
5 | B4 | 5.7e+06 | 180 | 2 | 
6 | B5 | 2.1e+06 | 480 | 2 | 
7 | B6 | 4.7e+06 | 210 | 2 | 
8 | B7 |  |  |  | Ka (AUC [4]): 1400 M⁻¹; Kd (AUC [4]): 694000 nM
9 | B8 | 200000 | 4900 | 2 | 
10 | B9 |  |  |  | binding result [5]: binds
